B1: human TFIIH p62 PH domain (PH-D) (residues 1–108) (domain or fragment)
chain: MATSSEEVLLIVKKVRQKKQDGALYLMAERIAWAPEGKDRFTISHMYADIKCQKISPEGKAKIQLQLVLHAGDTTNFHFSNESTAVKERDAVKDLLQQLLPKFKRKAN
notes: p62 subunit of the general transcription/repair factor TFIIH, human, N-terminal pleckstrin homology (PH) domain, residues 1-108; Unlabeled, 15N-labeled or 13C/15N-labeled according to the experiment; Expressed from pET15b; a few vector residues may remain after thrombin cleavage (surmise); source: E. coli BL21 (DE3) Gold, purified (Ni-NTA, thrombin digestion, Superdex75)
B2: human RPB6 (residues 1–24), NTT peptide (peptide, UniProt P61218 1-24, looked up)
peptide: MSDNEDNFDGDDFDDVEEDEGLDD
notes: RPB6, human, N-terminal tail (NTT), residues 1-24; also called NTT peptide derived from human RPB6
B3: human RPB6 (residues 1–24) V16A (peptide, UniProt P61218 1-24, looked up)
peptide: MSDNEDNFDGDDFDDAEEDEGLDD
notes: RPB6, human, N-terminal tail, residues 1-24, with V16A
B4: human RPB6 (residues 1–24) F8A (peptide, UniProt P61218 1-24, looked up)
peptide: MSDNEDNADGDDFDDVEEDEGLDD
notes: RPB6, human, N-terminal tail, residues 1-24, with F8A
B5: human RPB6 (residues 1–24) S2A (peptide, UniProt P61218 1-24, looked up)
peptide: MADNEDNFDGDDFDDVEEDEGLDD
notes: RPB6, human, N-terminal tail, residues 1-24, with Ser2 substituted to alanine; also called Ser2 alanine substitution
B6: human RPB6 (residues 1–24) F13A-V16A (peptide, UniProt P61218 1-24, looked up)
peptide: MSDNEDNFDGDDADDAEEDEGLDD
notes: RPB6, human, N-terminal tail, residues 1-24, with F13A and V16A; also called F13A-V16A double mutation
B7: human RPB6 (residues 1–24) F13A (peptide, UniProt P61218 1-24, looked up)
peptide: MSDNEDNFDGDDADDVEEDEGLDD
notes: RPB6, human, N-terminal tail, residues 1-24, with F13A

Assays:
[1] = target: human RPB6 (residues 1–127), full-length (human, UniProt P61218 1-127); test: NMR structure; complex at 0.38 mM, 13C/15N-labeled RPB6 with unlabeled p62 PH-D at 1.0:2.0 (and 13C/15N-labeled p62 PH-D with unlabeled RPB6); 20 mM potassium phosphate (pH 6.8), 25 mM NaCl, 5 mM deuterated DTT, 25°C; intermolecular NOEs; settings: both partners purified
[2] = target: B1; test: ITC; 100∼300 μM RPB6/Rpb6 peptide in the syringe titrated into 10–30 μM p62 PH-D in the cell; 20 mM potassium phosphate (pH 6.8) with or without 25 mM NaCl, 20°C; VP-ITC; settings: both partners purified

Row | Binder | binding result [1] | binding result [2]
1 | B1 | binds | 
2 | B2 |  | binds
3 | B3 |  | binds
4 | B4 |  | binds
5 | B5 |  | binds
6 | B6 |  | binds
7 | B7 |  | binds
